Measurements: patent US20250297029A1 (NANJING LEGEND BIOTECH, published 2025)

Tests used:
[1] = biological target: T1, GPC3 (UniProt P51654 25-559, limits assumed); test: SPR as in Example 1 (Biacore T200; scFv-Fc captured, GPC3 in flow)
T1 construct: also called antigen GPC3; Glypican 3
Excerpt: (§1) The humanized VLs (VL1 and VL1.M2) were connected to humanized VHs (VH2, VH2.M1, VH2.M5 and VH2.M6) with a (G4S)₃ linker (SEQ ID NO: 10) to construct humanized scFvs. These scFvs were expressed with a C-terminal Fc tag in HEK293 cells. The crude scFv proteins secreted to the cell culture supernatant were used for binding affinity determination using surface plasmon resonance (SPR) on a Biacore T200 machine. Briefly, the scFv protein was captured on the sensor chip pre-coated with goat-anti-human Fc polyclonal antibody (pAb) (Jackson ImmunoResearch, cat #109-005-098) via the interaction between pAb and the Fc tag, then the antigen GPC3 concentration ranging from 10 nM to 320 nM flowed through the sensor chip. After 100 s of association, running buffer (10 mM HEPES, 150 mM NaCl, 3 mM EDTA, 0.005% Tween-20, pH 7.4) flowed through the sensor chip to allow the scFv-GPC3 complex to dissociation. The sensor chip was regenerated using 50 mM HCl between cycles.
To further improve the humanization of anti-GPC3 scFvs, additional amino acid residues in VH1 and VL1 were mutated to their human germline counterparts. In HCDR2 of VH2.M6, mutations K54S, T55G or both were introduced, yielding VH2.M8 (SEQ ID NO: 11), VH2.M9 (SEQ ID NO: 12) and VH2.M10 (SEQ ID NO: 13) sequences, respectively. Mutation D57S was introduced to VH2.M6, yielding VH2.M11 sequence (SEQ ID NO: 14). All three additional mutations was introduced to VH2.M6, yielding VH2.M12 sequence (SEQ ID NO: 15). Similarly for VL1.M2, an additional N35K mutation was introduced to LCDR1, yielding VL1.M3 (SEQ ID NO: 16). Additional S94M, N96G and V99W mutations were introduced to LCDR3 of VL1.M2 individually, yielding VL1.M6 (SEQ ID NO: 17), VL1.M7 (SEQ ID NO: 18) and VL1.M8 (SEQ ID NO: 19) sequences, respectively. Additional S94M mutations was introduced to LCDR3 of VL1, yielding VL1.M9 (SEQ ID NO: 137) sequence. The binding affinity of these humanized variants were again determined using SPR as described in Example 1 (Table 5).

[2] = biological target: T1, GPC3; test: SPR (Biacore T200); scFv-Fc captured by anti-human Fc pAb, GPC3 10-320 nM in flow
Excerpt: as §1

T1 sequence (P51654 25-559 limits assumed): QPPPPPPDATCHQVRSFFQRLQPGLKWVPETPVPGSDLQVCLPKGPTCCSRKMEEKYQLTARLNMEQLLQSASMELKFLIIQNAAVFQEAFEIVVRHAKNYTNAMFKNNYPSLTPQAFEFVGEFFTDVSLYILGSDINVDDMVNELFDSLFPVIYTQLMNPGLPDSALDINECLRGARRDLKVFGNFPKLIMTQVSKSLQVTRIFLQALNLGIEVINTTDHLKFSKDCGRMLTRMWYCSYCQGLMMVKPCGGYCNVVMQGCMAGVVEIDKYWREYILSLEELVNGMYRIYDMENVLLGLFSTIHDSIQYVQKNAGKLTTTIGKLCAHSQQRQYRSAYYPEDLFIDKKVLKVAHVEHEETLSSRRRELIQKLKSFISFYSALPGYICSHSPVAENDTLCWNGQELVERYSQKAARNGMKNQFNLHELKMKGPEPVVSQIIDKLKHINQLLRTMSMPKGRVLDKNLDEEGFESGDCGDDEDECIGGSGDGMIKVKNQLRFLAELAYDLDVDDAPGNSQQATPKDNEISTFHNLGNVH

| Binder | Kd [1] | koff [1] | kon [1] | Kd [2] | koff [2] | kon [2] |
| --- | --- | --- | --- | --- | --- | --- |
| mouse anti-GPC3 GC33 scFv (VL-VH) (scFv, also called mouse scFv; not shown: C-terminal Fc tag (human Fc, used only for capture on the anti-human Fc chip) and any junction to it) scFv: DVVMTQTPLSLPVSLGDQASISCRSSQSLVHSNGNTYLHWYLQKPGQSPKLLIYKVSNRFSGVPDRFSGSGSGTDFTLKISRVEAEDLGVYFCSQNTHVPPTFGSGTKLEIKGGGGSGGGGSGGGGSQVQLQQSGAELVRPGASVKLSCKASGYTFTDYEMHWVKQTPVHGLKWIGALDPKTGDTAYSQKFKGKATLTADKSSSTAYMELRSLTSEDSAVYYCTRFYSYTYWGQGTLVTVSA | 4 nM | 0.00021 s⁻¹ | 51000 M⁻¹ s⁻¹ | 1.8 nM | 0.00023 s⁻¹ | 130000 M⁻¹ s⁻¹ |
| VL1-VH2 humanized scFv (scFv, not shown: a dimerising Fc or GST, Crude scFv with Fc tag from HEK293 supernatant) scFv: DIVMTQTPLSLSVTPGQPASISCRSSQSLVHSNGNTYLHWYLQKPGQSPQLLIYKVSNRFSGVPDRFSGSGSGTDFTLKISRVEAEDVGVYYCSQNTHVPPTFGQGTKVEIKGGGGSGGGGSGGGGSQVQLVQSGAEVKKPGASVKVSCKASGYTFTDYEMHWVRQAPGQGLEWMGALDPKTGDTAYSQKFKGRVTLTADTSTSTVYMELSSLRSEDTAVYYCTRFYSYTYWGQGTLVTVSS |  |  |  | 1.7 nM | 0.00029 s⁻¹ | 170000 M⁻¹ s⁻¹ |
| VL1.M2-VH2 humanized scFv (scFv, not shown: a dimerising Fc or GST, Crude scFv with Fc tag from HEK293 supernatant) scFv: DIVMTQTPLSLSVTPGQPASISCRSSQSLVHSNGNTYLHWYLQKPGQSPQLLIYKVSSRFSGVPDRFSGSGSGTDFTLKISRVEAEDVGVYYCSQNTHVPPTFGQGTKVEIKGGGGSGGGGSGGGGSQVQLVQSGAEVKKPGASVKVSCKASGYTFTDYEMHWVRQAPGQGLEWMGALDPKTGDTAYSQKFKGRVTLTADTSTSTVYMELSSLRSEDTAVYYCTRFYSYTYWGQGTLVTVSS |  |  |  | 2.2 nM | 0.00035 s⁻¹ | 160000 M⁻¹ s⁻¹ |
| VL1-VH2.M1 humanized scFv (scFv, not shown: a dimerising Fc or GST, Crude scFv with Fc tag from HEK293 supernatant) scFv: DIVMTQTPLSLSVTPGQPASISCRSSQSLVHSNGNTYLHWYLQKPGQSPQLLIYKVSNRFSGVPDRFSGSGSGTDFTLKISRVEAEDVGVYYCSQNTHVPPTFGQGTKVEIKGGGGSGGGGSGGGGSQVQLVQSGAEVKKPGASVKVSCKASGYTFTSYEMHWVRQAPGQGLEWMGALDPKTGDTAYSQKFKGRVTLTADTSTSTVYMELSSLRSEDTAVYYCTRFYSYTYWGQGTLVTVSS |  |  |  | 1.9 nM | 0.00036 s⁻¹ | 190000 M⁻¹ s⁻¹ |
| VL1.M8-VH2.M6 humanized scFv (scFv, not shown: a dimerising Fc or GST) scFv: DIVMTQTPLSLSVTPGQPASISCRSSQSLVHSNGNTYLHWYLQKPGQSPQLLIYKVSSRFSGVPDRFSGSGSGTDFTLKISRVEAEDVGVYYCSQNTHWPPTFGQGTKVEIKGGGGSGGGGSGGGGSQVQLVQSGAEVKKPGASVKVSCKASGYTFTSYEMHWVRQAPGQGLEWMGALDPKTGDTAYSQKFQGRVTLTADTSTSTVYMELSSLRSEDTAVYYCTRFYSYTYWGQGTLVTVSS | 44 nM | 0.0042 s⁻¹ | 94000 M⁻¹ s⁻¹ |  |  |  |
| VL1.M6-VH2.M6 humanized scFv (scFv, not shown: a dimerising Fc or GST) scFv: DIVMTQTPLSLSVTPGQPASISCRSSQSLVHSNGNTYLHWYLQKPGQSPQLLIYKVSSRFSGVPDRFSGSGSGTDFTLKISRVEAEDVGVYYCMQNTHVPPTFGQGTKVEIKGGGGSGGGGSGGGGSQVQLVQSGAEVKKPGASVKVSCKASGYTFTSYEMHWVRQAPGQGLEWMGALDPKTGDTAYSQKFQGRVTLTADTSTSTVYMELSSLRSEDTAVYYCTRFYSYTYWGQGTLVTVSS | 5.7 nM | 0.00058 s⁻¹ | 100000 M⁻¹ s⁻¹ |  |  |  |
| VL1.M3-VH2.M6 humanized scFv (scFv, not shown: a dimerising Fc or GST) scFv: DIVMTQTPLSLSVTPGQPASISCRSSQSLVHSNGKTYLHWYLQKPGQSPQLLIYKVSSRFSGVPDRFSGSGSGTDFTLKISRVEAEDVGVYYCSQNTHVPPTFGQGTKVEIKGGGGSGGGGSGGGGSQVQLVQSGAEVKKPGASVKVSCKASGYTFTSYEMHWVRQAPGQGLEWMGALDPKTGDTAYSQKFQGRVTLTADTSTSTVYMELSSLRSEDTAVYYCTRFYSYTYWGQGTLVTVSS | 27 nM | 0.0016 s⁻¹ | 61000 M⁻¹ s⁻¹ |  |  |  |
| VL1-VH2.M6 humanized scFv (scFv, not shown: a dimerising Fc or GST, Crude scFv with Fc tag from HEK293 supernatant) scFv: DIVMTQTPLSLSVTPGQPASISCRSSQSLVHSNGNTYLHWYLQKPGQSPQLLIYKVSNRFSGVPDRFSGSGSGTDFTLKISRVEAEDVGVYYCSQNTHVPPTFGQGTKVEIKGGGGSGGGGSGGGGSQVQLVQSGAEVKKPGASVKVSCKASGYTFTSYEMHWVRQAPGQGLEWMGALDPKTGDTAYSQKFQGRVTLTADTSTSTVYMELSSLRSEDTAVYYCTRFYSYTYWGQGTLVTVSS |  |  |  | 2 nM | 0.00037 s⁻¹ | 190000 M⁻¹ s⁻¹ |

More lines, now with the values ahead:

| Kd [1] | koff [1] | kon [1] | Kd [2] | koff [2] | kon [2] | Binder |
| --- | --- | --- | --- | --- | --- | --- |
| 6.8 nM | 0.0005 s⁻¹ | 74000 M⁻¹ s⁻¹ |  |  |  | VL1.M2-VH2.M10 humanized scFv (scFv, not shown: a dimerising Fc or GST) scFv: DIVMTQTPLSLSVTPGQPASISCRSSQSLVHSNGNTYLHWYLQKPGQSPQLLIYKVSSRFSGVPDRFSGSGSGTDFTLKISRVEAEDVGVYYCSQNTHVPPTFGQGTKVEIKGGGGSGGGGSGGGGSQVQLVQSGAEVKKPGASVKVSCKASGYTFTSYEMHWVRQAPGQGLEWMGALDPSGGDTAYSQKFQGRVTLTADTSTSTVYMELSSLRSEDTAVYYCTRFYSYTYWGQGTLVTVSS |
| 8.2 nM | 0.0006 s⁻¹ | 74000 M⁻¹ s⁻¹ |  |  |  | VL1.M2-VH2.M9 humanized scFv (scFv, not shown: a dimerising Fc or GST) scFv: DIVMTQTPLSLSVTPGQPASISCRSSQSLVHSNGNTYLHWYLQKPGQSPQLLIYKVSSRFSGVPDRFSGSGSGTDFTLKISRVEAEDVGVYYCSQNTHVPPTFGQGTKVEIKGGGGSGGGGSGGGGSQVQLVQSGAEVKKPGASVKVSCKASGYTFTSYEMHWVRQAPGQGLEWMGALDPKGGDTAYSQKFQGRVTLTADTSTSTVYMELSSLRSEDTAVYYCTRFYSYTYWGQGTLVTVSS |
|  |  |  | 1.6 nM | 0.00027 s⁻¹ | 170000 M⁻¹ s⁻¹ | VL1-VH2.M5 humanized scFv (scFv, not shown: a dimerising Fc or GST, Crude scFv with Fc tag from HEK293 supernatant) scFv: DIVMTQTPLSLSVTPGQPASISCRSSQSLVHSNGNTYLHWYLQKPGQSPQLLIYKVSNRFSGVPDRFSGSGSGTDFTLKISRVEAEDVGVYYCSQNTHVPPTFGQGTKVEIKGGGGSGGGGSGGGGSQVQLVQSGAEVKKPGASVKVSCKASGYTFTDYEMHWVRQAPGQGLEWMGALDPKTGDTAYSQKFQGRVTLTADTSTSTVYMELSSLRSEDTAVYYCTRFYSYTYWGQGTLVTVSS |
| 51 nM | 0.0034 s⁻¹ | 67000 M⁻¹ s⁻¹ |  |  |  | VL1.M7-VH2.M6 humanized scFv (scFv, not shown: a dimerising Fc or GST) scFv: DIVMTQTPLSLSVTPGQPASISCRSSQSLVHSNGNTYLHWYLQKPGQSPQLLIYKVSSRFSGVPDRFSGSGSGTDFTLKISRVEAEDVGVYYCSQGTHVPPTFGQGTKVEIKGGGGSGGGGSGGGGSQVQLVQSGAEVKKPGASVKVSCKASGYTFTSYEMHWVRQAPGQGLEWMGALDPKTGDTAYSQKFQGRVTLTADTSTSTVYMELSSLRSEDTAVYYCTRFYSYTYWGQGTLVTVSS |
| 6 nM | 0.00044 s⁻¹ | 74000 M⁻¹ s⁻¹ |  |  |  | VL1.M2-VH2.M8 humanized scFv (scFv, not shown: a dimerising Fc or GST) scFv: DIVMTQTPLSLSVTPGQPASISCRSSQSLVHSNGNTYLHWYLQKPGQSPQLLIYKVSSRFSGVPDRFSGSGSGTDFTLKISRVEAEDVGVYYCSQNTHVPPTFGQGTKVEIKGGGGSGGGGSGGGGSQVQLVQSGAEVKKPGASVKVSCKASGYTFTSYEMHWVRQAPGQGLEWMGALDPSTGDTAYSQKFQGRVTLTADTSTSTVYMELSSLRSEDTAVYYCTRFYSYTYWGQGTLVTVSS |
|  |  |  | 2.1 nM | 0.00037 s⁻¹ | 170000 M⁻¹ s⁻¹ | VL1.M2-VH2.M5 humanized scFv (scFv, not shown: a dimerising Fc or GST, Crude scFv with Fc tag from HEK293 supernatant) scFv: DIVMTQTPLSLSVTPGQPASISCRSSQSLVHSNGNTYLHWYLQKPGQSPQLLIYKVSSRFSGVPDRFSGSGSGTDFTLKISRVEAEDVGVYYCSQNTHVPPTFGQGTKVEIKGGGGSGGGGSGGGGSQVQLVQSGAEVKKPGASVKVSCKASGYTFTDYEMHWVRQAPGQGLEWMGALDPKTGDTAYSQKFQGRVTLTADTSTSTVYMELSSLRSEDTAVYYCTRFYSYTYWGQGTLVTVSS |
|  |  |  | 3 nM | 0.00051 s⁻¹ | 170000 M⁻¹ s⁻¹ | VL1.M2-VH2.M1 humanized scFv (scFv, not shown: a dimerising Fc or GST, Crude scFv with Fc tag from HEK293 supernatant) scFv: DIVMTQTPLSLSVTPGQPASISCRSSQSLVHSNGNTYLHWYLQKPGQSPQLLIYKVSSRFSGVPDRFSGSGSGTDFTLKISRVEAEDVGVYYCSQNTHVPPTFGQGTKVEIKGGGGSGGGGSGGGGSQVQLVQSGAEVKKPGASVKVSCKASGYTFTSYEMHWVRQAPGQGLEWMGALDPKTGDTAYSQKFKGRVTLTADTSTSTVYMELSSLRSEDTAVYYCTRFYSYTYWGQGTLVTVSS |
